From patent US20220242950A1 (CANTARGIA, published 2022)

T1: human IL1RAP on the cell surface (human, UniProt Q9NPH3 21-570)
T1 sequence (looked up): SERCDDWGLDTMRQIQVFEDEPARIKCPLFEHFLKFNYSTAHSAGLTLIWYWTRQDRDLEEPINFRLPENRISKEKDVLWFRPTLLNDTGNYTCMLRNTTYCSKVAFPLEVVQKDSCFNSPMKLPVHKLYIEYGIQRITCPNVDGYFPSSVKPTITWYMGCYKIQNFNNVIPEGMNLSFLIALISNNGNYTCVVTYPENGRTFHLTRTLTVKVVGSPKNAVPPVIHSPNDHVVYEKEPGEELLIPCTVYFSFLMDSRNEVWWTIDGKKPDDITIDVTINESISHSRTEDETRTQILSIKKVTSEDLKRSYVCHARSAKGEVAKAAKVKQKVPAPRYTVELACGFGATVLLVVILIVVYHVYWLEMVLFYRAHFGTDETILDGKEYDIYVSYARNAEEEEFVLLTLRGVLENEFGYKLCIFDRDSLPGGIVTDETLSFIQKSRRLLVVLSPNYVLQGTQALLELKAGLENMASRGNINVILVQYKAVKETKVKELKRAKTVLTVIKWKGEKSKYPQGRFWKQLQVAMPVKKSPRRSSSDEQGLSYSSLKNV

T2: recombinant hIL1RAP Domain1+2+3 (aa21-367) (human, UniProt Q9NPH3 21-367)
T2 construct: Numbering on Uniprot Q9NPH3
T2 sequence (looked up): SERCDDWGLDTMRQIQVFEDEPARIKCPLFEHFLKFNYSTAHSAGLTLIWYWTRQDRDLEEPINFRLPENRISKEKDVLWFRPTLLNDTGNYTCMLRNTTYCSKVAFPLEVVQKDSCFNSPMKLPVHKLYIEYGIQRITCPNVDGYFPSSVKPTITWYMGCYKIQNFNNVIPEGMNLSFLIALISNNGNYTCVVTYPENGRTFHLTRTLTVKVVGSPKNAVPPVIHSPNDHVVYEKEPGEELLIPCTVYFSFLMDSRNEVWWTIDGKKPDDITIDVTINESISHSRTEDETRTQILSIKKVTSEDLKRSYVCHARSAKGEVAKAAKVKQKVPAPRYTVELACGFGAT

T3: recombinant mf IL1RAP aa21-367 (cynomolgus monkey (Macaca fascicularis), UniProt A0A2K5X5J5 21-367)
T3 construct: also called cynomolgus monkey IL1RAP; cyno IL1RAP
T3 sequence: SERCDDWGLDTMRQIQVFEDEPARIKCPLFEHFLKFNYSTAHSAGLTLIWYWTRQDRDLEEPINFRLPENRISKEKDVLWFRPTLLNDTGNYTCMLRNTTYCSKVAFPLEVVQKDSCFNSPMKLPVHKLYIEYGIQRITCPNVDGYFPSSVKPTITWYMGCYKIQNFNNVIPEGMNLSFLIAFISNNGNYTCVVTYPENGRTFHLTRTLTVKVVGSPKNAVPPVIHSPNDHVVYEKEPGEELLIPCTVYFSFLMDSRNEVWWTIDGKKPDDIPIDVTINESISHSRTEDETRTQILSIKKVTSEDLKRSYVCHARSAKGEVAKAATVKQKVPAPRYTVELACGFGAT


Assays:
[1] = target: T1, human IL1RAP on the cell surface; assay: cell-based or functional assay
[2] = target: T2, recombinant hIL1RAP Domain1+2+3 …; assay: bio-layer interferometry, human IL1RAP
Protocol: Affinity measurements were done on BLItz™ Label-Free Protein Analysis System from ForteBio, using the Basic Kinetics module in the BLItz Pro 1.3.1.3 software from Molecular Devices. Protein A biosensors were hydrated in blocking buffer (PBS, 0.5% BSA, 0.05% Tween 20, pH 7.4) for minimum 10 min at room temperature before coating. Protein A biosensors were coated with antibodies by dipping the biosensors in 200 μl of antibody solution (10 μg/ml in blocking buffer) for 30 min at room temperature. The sensors were then incubated in 200 μl blocking buffer for at least 10 min before use. […] The baseline was made in blocking buffer with a duration time of 30 sec. Association was made for 120 sec in hIL1RAP followed by 120 sec dissociation in blocking buffer.
The antibodies were characterized for A) binding (ELISA analysis, human and cynomolgus monkey IL1RAP), B) inhibition of cytokine signaling (HEK-Blue™ assay), C) affinity (Bio-layer interferometry), D) size heterogeneity (SE-HPLC) and E) yield (concentration, A280). […] SE-HPLC was performed using standard procedures and PBS as running buffer. Affinity and cytokine inhibition were measured as previously described in Example 10. All 25 humanized clones were analyzed for blocking activity on IL-1α, IL-1β and IL-33 signaling while only the clones that had retained the inhibitory activity similar to chimeric 48D2 were analyzed for IL-36 inhibition.
KD values for affinity towards human IL1RAP are shown in Table 11 for the humanized 48D2 variants. Affinity was measured using bio-layer interferometry. […] See also Table 4 for a direct comparison of chimeric 48D2, humanized 48D2 variant VH5:VL4, and a humanized and de-immunized 48D2 variant VH5.GL:VL4.

[3] = target: T2, recombinant hIL1RAP Domain1+2+3 …; assay: binding ELISA, coated recombinant hIL1RAP aa21-367
[4] = target: T3, recombinant mf IL1RAP aa21-367; assay: binding ELISA, coated recombinant mf IL1RAP aa21-367

Binder	IC50 of IL-1β signaling (HEK-Blue assay) [1] [µM]	IC50 of IL-33 signaling (HEK-Blue assay) [1] [µM]	Kd [2] [µM]	IC50 [3] [µg/mL]	IC50 [4] [µg/mL]	IC50 of IL-1α signaling (HEK-Blue assay) [1] [µM]
h48D2 VH2:VL2 (antibody, human IgG1, kappa, L234A L235A, V domains shown, Humanized; also called VL2:VH2) VH: EVQLVESGGALVQPGGSLRLSCIVSGPSLSHFDITWFRQAPGKGLEWVATISPGVSTYYASWAKSRFTISTDTSKNTLFLQMDSLRAEDTAVYYCARGGVGSSWKAFDLWGPGTLVTVSS VL: QIVLTQSPATLSASVGDRVTITCQASESISTALAWYQQKPGKAPKLLIYKASTLPSGVPSRFSGSGSGTEFTLTISSLQPDDSATYYCQQGFSSGNVHNAFGQGTKLEIKR	0.000882	0.0458	0.00733	0.0261	0.0292	
h48D2 VH2:VL3 (antibody, human IgG1, kappa, L234A L235A, V domains shown, Humanized; also called VL3:VH2) VH: EVQLVESGGALVQPGGSLRLSCIVSGPSLSHFDITWFRQAPGKGLEWVATISPGVSTYYASWAKSRFTISTDTSKNTLFLQMDSLRAEDTAVYYCARGGVGSSWKAFDLWGPGTLVTVSS VL: DILLTQTPSVVSASVGDRVTITCQASESISTALAWYQQKPGQAPRLLIYKASTLPSGVPSRFRGSGSGTDFTLTITSLQPEDFATYYCQQGFSSGNVHNAFGGGTRLEIKR	0.00366	1.95	0.0121	0.0273	0.0314	
h48D2 VH2:VL4 (antibody, human IgG1, kappa, L234A L235A, V domains shown, Humanized; also called VL4:VH2) VH: EVQLVESGGALVQPGGSLRLSCIVSGPSLSHFDITWFRQAPGKGLEWVATISPGVSTYYASWAKSRFTISTDTSKNTLFLQMDSLRAEDTAVYYCARGGVGSSWKAFDLWGPGTLVTVSS VL: ELVMTQSPSSVSASVGDRVTITCQASESISTALAWYQQKPGKAPKLLIYKASTLPSGVPSRFSGSGSGTDFTLTINSLQPEDFATYYCQQGFSSGNVHNAFGGGTKVEIKR	0.00136	0.0864	0.0112	0.0262	0.0312	~4130
h48D2 VH3:VL5 (antibody, human IgG1, kappa, L234A L235A, V domains shown, Humanized; also called VL5:VH3) VH: EVQLLESGGGLVLPGGSLRLSCAASGPSLSHFDITWVRQAPGKGLEWVSTISPGVSTYYASWAKSRFTISRDNSKNTLYLQMSSLRAEDTAVYYCARGGVGSSWKAFDLWGLGTTVTVSS VL: APVLTQSPATLEASVGDRVTITCQASESISTALAWYQQKPGQPPKLLIYKASTLPSGVPSRFSGSGSGTEFTLTISDLESDDAATYYCQQGFSSGNVHNAFGGGTEVVVKR	0.00987	0.474	0.0344	0.0232	0.0279	0.288
h48D2 VH4:VL5 (antibody, human IgG1, kappa, L234A L235A, V domains shown, Humanized; also called VL5:VH4) VH: QVQLQESGPGLVKPSETLSLTCTVSGPSLSHFDITWIRQPPGKGLEWIGTISPGVSTYYASWAKSRFTISVDTSKNQFSLKLTSVTAADTATYYCARGGVGSSWKAFDLWGPGTLVTVSS VL: APVLTQSPATLEASVGDRVTITCQASESISTALAWYQQKPGQPPKLLIYKASTLPSGVPSRFSGSGSGTEFTLTISDLESDDAATYYCQQGFSSGNVHNAFGGGTEVVVKR	0.000273	0.0743	0.015	0.0258	0.0244	
h48D2 VH3:VL2 (antibody, human IgG1, kappa, L234A L235A, V domains shown, Humanized; also called VL2:VH3) VH: EVQLLESGGGLVLPGGSLRLSCAASGPSLSHFDITWVRQAPGKGLEWVSTISPGVSTYYASWAKSRFTISRDNSKNTLYLQMSSLRAEDTAVYYCARGGVGSSWKAFDLWGLGTTVTVSS VL: QIVLTQSPATLSASVGDRVTITCQASESISTALAWYQQKPGKAPKLLIYKASTLPSGVPSRFSGSGSGTEFTLTISSLQPDDSATYYCQQGFSSGNVHNAFGQGTKLEIKR	0.00911	0.474	0.0224	0.0258	0.0274	

Continued by falling Kd [2], values first:

IC50 of IL-1β signaling (HEK-Blue assay) [1] [µM]	IC50 of IL-33 signaling (HEK-Blue assay) [1] [µM]	Kd [2] [µM]	IC50 [3] [µg/mL]	IC50 [4] [µg/mL]	IC50 of IL-1α signaling (HEK-Blue assay) [1] [µM]	Binder
0.0105		0.0274	0.0281	0.0279		h48D2 VH3:VL3 (antibody, human IgG1, kappa, L234A L235A, V domains shown, Humanized; also called VL3:VH3) VH: EVQLLESGGGLVLPGGSLRLSCAASGPSLSHFDITWVRQAPGKGLEWVSTISPGVSTYYASWAKSRFTISRDNSKNTLYLQMSSLRAEDTAVYYCARGGVGSSWKAFDLWGLGTTVTVSS VL: DILLTQTPSVVSASVGDRVTITCQASESISTALAWYQQKPGQAPRLLIYKASTLPSGVPSRFRGSGSGTDFTLTITSLQPEDFATYYCQQGFSSGNVHNAFGGGTRLEIKR
0.00467	0.26	0.0228	0.0243	0.0251		h48D2 VH4:VL4 (antibody, human IgG1, kappa, L234A L235A, V domains shown, Humanized; also called VL4:VH4) VH: QVQLQESGPGLVKPSETLSLTCTVSGPSLSHFDITWIRQPPGKGLEWIGTISPGVSTYYASWAKSRFTISVDTSKNQFSLKLTSVTAADTATYYCARGGVGSSWKAFDLWGPGTLVTVSS VL: ELVMTQSPSSVSASVGDRVTITCQASESISTALAWYQQKPGKAPKLLIYKASTLPSGVPSRFSGSGSGTDFTLTINSLQPEDFATYYCQQGFSSGNVHNAFGGGTKVEIKR
0.00295		0.0197	0.0308	0.0316		h48D2 VH4:VL1 (antibody, human IgG1, kappa, L234A L235A, V domains shown, Humanized; also called VL1:VH4) VH: QVQLQESGPGLVKPSETLSLTCTVSGPSLSHFDITWIRQPPGKGLEWIGTISPGVSTYYASWAKSRFTISVDTSKNQFSLKLTSVTAADTATYYCARGGVGSSWKAFDLWGPGTLVTVSS VL: DIVMTQSPSSLSASVGDRVTITCQASESISTALAWYQQKPGKAPKLLIYKASTLPSGVPSRFSGSGSGTDFTLTISSLQPEDFATYYCQQGFSSGNVHNAFGGGTKVVIKR
0.00297	7.03	0.0167	0.0312	0.0302		h48D2 VH4:VL3 (antibody, human IgG1, kappa, L234A L235A, V domains shown, Humanized; also called VL3:VH4) VH: QVQLQESGPGLVKPSETLSLTCTVSGPSLSHFDITWIRQPPGKGLEWIGTISPGVSTYYASWAKSRFTISVDTSKNQFSLKLTSVTAADTATYYCARGGVGSSWKAFDLWGPGTLVTVSS VL: DILLTQTPSVVSASVGDRVTITCQASESISTALAWYQQKPGQAPRLLIYKASTLPSGVPSRFRGSGSGTDFTLTITSLQPEDFATYYCQQGFSSGNVHNAFGGGTRLEIKR
0.00555		0.0132	0.0322	0.0291		h48D2 VH4:VL2 (antibody, human IgG1, kappa, L234A L235A, V domains shown, Humanized; also called VL2:VH4) VH: QVQLQESGPGLVKPSETLSLTCTVSGPSLSHFDITWIRQPPGKGLEWIGTISPGVSTYYASWAKSRFTISVDTSKNQFSLKLTSVTAADTATYYCARGGVGSSWKAFDLWGPGTLVTVSS VL: QIVLTQSPATLSASVGDRVTITCQASESISTALAWYQQKPGKAPKLLIYKASTLPSGVPSRFSGSGSGTEFTLTISSLQPDDSATYYCQQGFSSGNVHNAFGQGTKLEIKR
